Source: the Human Domainome abundance scans (Beltran et al. 2025)
± gives the uncertainty stated by the source.

B1: Chromodomain-helicase-DNA-binding protein 3, residues 374 to 426; numbered along this chain, Q12873 (parent)
chain: YETDHQDYCEVCQQGGEIILCDTCPRAYHLVCLDPELDRAPEGKWSCPHCEKE

Variants of: B1
Assay: abundance fitness (aPCA) (normalised: wild type 0, dead -1); higher = more abundant; growth selection in yeast, the domain comes from the species named
Conditions: Homo sapiens

Abundance fitness: each site, then its substitutions
Y28: K -0.578 ± 0.22 | L -0.059 ± 0.1 | M 0.219 ± 0.14 | N -0.377 ± 0.14 | P -0.837 ± 0.2 | Q -0.445 ± 0.14 | R -0.256 ± 0.1 | T -0.203 ± 0.14 | V -0.284 ± 0.11 | W 0.143 ± 0.14
H29: A -0.745 ± 0.11 | C 0.029 ± 0.13 | D -0.615 ± 0.15 | E -0.872 ± 0.14 | F -1.07 ± 0.19 | G -0.844 ± 0.11 | I -1.09 ± 0.22 | K -0.912 ± 0.17 | L -0.763 ± 0.12 | N -0.383 ± 0.17 | P -0.801 ± 0.17 | R -0.786 ± 0.097 | S -0.852 ± 0.13 | T -0.846 ± 0.15 | V -0.745 ± 0.11 | W -0.656 ± 0.14 | Y -1.1 ± 0.19
L30: A 0.053 ± 0.11 | C 0.072 ± 0.12 | D -0.264 ± 0.17 | E -0.155 ± 0.14 | F -0.038 ± 0.15 | G -0.014 ± 0.13 | H -0.059 ± 0.13 | I -0.27 ± 0.14 | K -0.121 ± 0.14 | M 0.067 ± 0.088 | N -0.197 ± 0.18 | P 0.021 ± 0.11 | Q -0.189 ± 0.14 | S -0.202 ± 0.097 | T -0.067 ± 0.11 | V -0.014 ± 0.1 | Y 0.098 ± 0.13
V31: A 0.158 ± 0.12 | C -0.254 ± 0.15 | D -0.18 ± 0.15 | E -0.229 ± 0.14 | F -0.09 ± 0.12 | G -0.094 ± 0.13 | H 0.038 ± 0.13 | I -0.245 ± 0.12 | K -0.132 ± 0.15 | L -0.17 ± 0.094 | M -0.03 ± 0.12 | N -0.314 ± 0.12 | Q -0.012 ± 0.13 | S -0.061 ± 0.096 | T -0.3 ± 0.11 | W -0.26 ± 0.14 | Y -0.297 ± 0.17
C32: A -1.09 ± 0.14 | D -0.718 ± 0.16 | E -0.663 ± 0.24 | F -1.05 ± 0.11 | H -0.163 ± 0.085 | I -1.06 ± 0.12 | K -0.958 ± 0.21 | L -0.986 ± 0.095 | M -0.94 ± 0.18 | N -0.797 ± 0.13 | P -0.957 ± 0.11 | Q -0.821 ± 0.15 | R -1.06 ± 0.12 | S -0.68 ± 0.086 | T -0.948 ± 0.12 | V -1.2 ± 0.15 | W -0.502 ± 0.15
L33: A -0.12 ± 0.12 | C 0.072 ± 0.12 | D -0.755 ± 0.29 | E -0.365 ± 0.18 | F -0.449 ± 0.14 | G 0.07 ± 0.1 | H -0.146 ± 0.15 | I -0.214 ± 0.14 | K -0.663 ± 0.15 | M -0.148 ± 0.13 | N -0.326 ± 0.14 | P -0.427 ± 0.12 | R -0.39 ± 0.091 | S -0.286 ± 0.11 | T -0.208 ± 0.1 | V -0.182 ± 0.13 | Y -0.133 ± 0.15
D34: A -0.198 ± 0.082 | C -0.316 ± 0.15 | E -0.011 ± 0.11 | F -0.287 ± 0.12 | G -0.156 ± 0.099 | H -0.385 ± 0.14 | I -0.383 ± 0.14 | K -0.079 ± 0.12 | L -0.083 ± 0.092 | M -0.494 ± 0.13 | N -0.189 ± 0.11 | P -0.089 ± 0.11 | Q -0.112 ± 0.15 | R -0.197 ± 0.093 | S -0.127 ± 0.091 | V -0.1 ± 0.08 | W -0.747 ± 0.22 | Y -0.327 ± 0.13
P35: C -0.117 ± 0.17 | D 0.039 ± 0.14 | E -0.306 ± 0.11 | G -0.044 ± 0.1 | H -0.052 ± 0.31 | I -0.3 ± 0.23 | K -0.183 ± 0.15 | L -0.11 ± 0.098 | M -0.095 ± 0.15 | N -0.196 ± 0.24 | S -0.068 ± 0.11 | T -0.013 ± 0.14 | V 0.029 ± 0.088 | W -0.167 ± 0.16 | Y 0.015 ± 0.17
E36: A -0.029 ± 0.13 | C 0.182 ± 0.19 | D -0.507 ± 0.2 | F -0.083 ± 0.19 | G -0.009 ± 0.1 | H -0.15 ± 0.23 | I -0.145 ± 0.26 | L -0.114 ± 0.11 | M -0.024 ± 0.2 | N 0.143 ± 0.27 | P -0.039 ± 0.15 | Q -0.193 ± 0.15 | R 0.018 ± 0.11 | S -0.335 ± 0.13 | T -0.172 ± 0.26 | V -0.018 ± 0.1 | W -0.478 ± 0.2 | Y -0.405 ± 0.32
L37: C -0.142 ± 0.14 | D -0.228 ± 0.17 | E -0.732 ± 0.28 | F -0.426 ± 0.16 | G -0.108 ± 0.1 | H -0.037 ± 0.17 | I -0.191 ± 0.24 | K -0.116 ± 0.18 | N -0.189 ± 0.24 | P -0.154 ± 0.12 | Q -0.21 ± 0.16 | R -0.094 ± 0.11 | S -0.295 ± 0.1 | T -0.275 ± 0.14 | V -0.143 ± 0.12 | W -0.298 ± 0.2 | Y 0.073 ± 0.15
D38: A -0.035 ± 0.15 | C -0.259 ± 0.19 | F -0.082 ± 0.22 | G -0.142 ± 0.15 | H 0.066 ± 0.43 | K -0.518 ± 0.24 | L -0.216 ± 0.11 | M -0.416 ± 0.18 | N -0.552 ± 0.16 | P -0.129 ± 0.15 | Q -0.326 ± 0.19 | R -0.352 ± 0.13 | S -0.09 ± 0.13 | T -0.169 ± 0.21 | V 0.011 ± 0.12 | W -0.319 ± 0.18 | Y -0.522 ± 0.28
R39: A 0.068 ± 0.14 | C -0.221 ± 0.17 | D -0.138 ± 0.17 | F -0.254 ± 0.14 | G -0.123 ± 0.13 | H -0.248 ± 0.25 | I 0.149 ± 0.17 | L -0.156 ± 0.14 | M -0.009 ± 0.18 | N 0.034 ± 0.21 | P -0.084 ± 0.24 | Q -0.182 ± 0.26 | S 0.01 ± 0.12 | T -0.037 ± 0.17 | V -0.248 ± 0.11 | W -0.2 ± 0.19 | Y -0.027 ± 0.19
A40: C -0.33 ± 0.13 | D 0.026 ± 0.19 | E 0.13 ± 0.12 | F -0.44 ± 0.16 | G -0.398 ± 0.1 | H -0.412 ± 0.22 | K -0.188 ± 0.19 | L -0.107 ± 0.1 | M -0.004 ± 0.13 | N -0.169 ± 0.26 | P -0.138 ± 0.15 | Q 0.126 ± 0.14 | R -0.129 ± 0.11 | S -0.221 ± 0.1 | T -0.162 ± 0.17 | V -0.081 ± 0.1 | W -0.346 ± 0.17 | Y -0.38 ± 0.17
P41: A -0.114 ± 0.12 | C -0.344 ± 0.17 | D -0.368 ± 0.2 | E -0.092 ± 0.15 | F -0.25 ± 0.2 | G 0.028 ± 0.097 | H -0.374 ± 0.23 | I -0.083 ± 0.17 | K -0.25 ± 0.22 | L 0.015 ± 0.1 | M -0.202 ± 0.15 | N -0.026 ± 0.19 | Q -0.073 ± 0.17 | R -0.093 ± 0.092 | S -0.045 ± 0.11 | T -0.06 ± 0.14 | W -0.317 ± 0.12 | Y -0.153 ± 0.19
E42: A -0.171 ± 0.1 | C -0.005 ± 0.13 | D -0.484 ± 0.19 | F -0.296 ± 0.17 | G 0.003 ± 0.1 | H 0.164 ± 0.21 | K -0.181 ± 0.22 | L 0.066 ± 0.1 | M -0.203 ± 0.17 | P -0.138 ± 0.2 | Q -0.088 ± 0.17 | R -0.232 ± 0.11 | S -0.06 ± 0.12 | T -0.173 ± 0.2 | V -0.044 ± 0.1 | W -0.396 ± 0.14 | Y -0.219 ± 0.16
G43: A -0.314 ± 0.15 | C -0.369 ± 0.13 | D -0.031 ± 0.16 | E 0.22 ± 0.15 | F -0.257 ± 0.19 | H -0.12 ± 0.16 | I -0.368 ± 0.21 | K 0.119 ± 0.19 | L -0.343 ± 0.12 | M -0.039 ± 0.21 | N 0.204 ± 0.14 | P 0.057 ± 0.17 | Q -0.001 ± 0.24 | R -0.142 ± 0.088 | S -0.043 ± 0.096 | T -0.128 ± 0.18 | V 0.054 ± 0.1 | Y -0.277 ± 0.17
K44: C -0.071 ± 0.14 | D -0.329 ± 0.24 | E -0.096 ± 0.13 | F -0.136 ± 0.37 | G 0.101 ± 0.092 | I 0.363 ± 0.25 | L -0.011 ± 0.11 | M -0.011 ± 0.19 | N -0.492 ± 0.45 | P -0.264 ± 0.16 | Q 0.038 ± 0.14 | R 0.043 ± 0.1 | S 0.077 ± 0.13 | T -0.304 ± 0.18 | V -0.39 ± 0.13 | W -0.525 ± 0.14 | Y -0.395 ± 0.26
W45: A -0.037 ± 0.16 | C -0.182 ± 0.17 | E -0.099 ± 0.15 | F 0.158 ± 0.17 | G -0.312 ± 0.1 | H -0.101 ± 0.18 | I -0.221 ± 0.17 | K -0.072 ± 0.16 | L -0.218 ± 0.1 | M -0.268 ± 0.16 | N 0.035 ± 0.19 | Q 0.19 ± 0.15 | R -0.204 ± 0.1 | S -0.224 ± 0.12 | T -0.143 ± 0.17 | Y 0.171 ± 0.15
S46: A -0.064 ± 0.11 | C -0.308 ± 0.14 | D -0.135 ± 0.14 | E -0.122 ± 0.12 | F -0.104 ± 0.14 | G -0.03 ± 0.087 | H -0.526 ± 0.32 | I 0.12 ± 0.16 | K -0.084 ± 0.17 | L -0.033 ± 0.1 | M -0.186 ± 0.18 | P -0.327 ± 0.19 | Q 0.127 ± 0.18 | R -0.037 ± 0.097 | T -0.073 ± 0.14 | V -0.085 ± 0.1 | W -0.043 ± 0.17 | Y 0.08 ± 0.15
C47: A -1.06 ± 0.15 | D -0.512 ± 0.21 | E -1.08 ± 0.21 | F -0.465 ± 0.19 | G -0.767 ± 0.11 | H -1.07 ± 0.38 | K -1.02 ± 0.28 | M -0.657 ± 0.18 | P -1.05 ± 0.22 | Q -0.835 ± 0.31 | R -0.835 ± 0.12 | S -0.814 ± 0.16 | T -0.931 ± 0.2 | V -0.753 ± 0.12 | W -0.847 ± 0.18
